These results are taken from the RNAGym collection of RNA variant scans (doi:10.7554/elife.80360).

B1: HDV Ribozyme (parent)
chain: GGCCGGCAUGGUCCCAGCCUCCUCGCUGGCGCCGGCUGGGCAACAUUCCGAGGGGACCGUCCCCUCGGUAAUGGCGAAUGGGACCCA

In the series the parent is B1. Briefly: self-cleavage, relative activity (ratio to wild type); higher = more cleavage; co-transcriptional.
For the variant C22U A78C, the self-cleavage was determined as 0.126. The result for G67C C75A reads 0.0652; that for G5A G82C, 0. The result for C14U C26U reads 1.07; that for G10A A83U, 0.322. The result for G28A G35A reads 0.0608. With G28A G35C, the self-cleavage was found to be 0.153. In the case of G17U C64G, the self-cleavage is 0.495. Take G55C U79C: the self-cleavage stood at 0.513. Turning to A45G A78U, the self-cleavage worked out at 0.225. Consider C21U A42U, for which the self-cleavage was 0.0845. Under C36U G53C stands 0.815; under U47C G76U, 0.895; under C33G C84A, 0.231. Under G55A A70C stands 1.06. Under C13U C14G stands 0.391. In the case of C49A C84A, the self-cleavage worked out at 1.05.

As to C22U G28A, the self-cleavage came out at 0.0804. For the variant U72A G80U, the self-cleavage is 0.251. The result for C4A G6A reads 0.0573; that for G1U G2C, 0.519.

Take C15U G34C: the self-cleavage was determined as 0.268.

For C36U G80A, the self-cleavage was found to be 0.0923. The result for G10U C19A reads 0.0946; that for G17U C30A, 0.831; that for C36A C84U, 0.163. Under A8U G25C stands 0.277. The result for C7U G76A reads 1.09; that for C44G C75A, 0.406; that for U27G C75A, 0.0755.

On to U72C G74C, for which the self-cleavage was determined as 0.26. For G34C A83U, the self-cleavage was 0.0755.

As for G25U C58U, the self-cleavage amounted to 0.217. Under G28A G82A stands 0.0604. Under G50C A71G stands 1.01; under G50C G74A, 0.471. Under G54C A77G stands 0.831; under U20C G68A, 0.111; under A56U G80C, 0.22. In the case of U20G A77C, the self-cleavage came to 0.178. The result for G29A G40C reads 0.0656; that for U60G A78U, 0.178; that for C3G G52C, 0.658. Under C26U A78C stands 0.35; under C62U A70U, 0.831; under G28C C30A, 0. With U27G G67U, the self-cleavage is 0.764. As to C32G C75U, the self-cleavage came to 0.0468. Under C7U G34C stands 0.193; under G10A G25C, 0.0639; under G2C G11C, 0.155. On to G29A G55C, for which the self-cleavage worked out at 0.0563. The result for C66U reads 1.01; that for A83C C86A, 0.554; that for G11C C62U, 0.271.

For G76U C86U, the self-cleavage was 0.852.

As to C13U G67U, the self-cleavage is 0.712. Under A16U G74U stands 0.394; under G25U C63A, 0.0791; under C7A G76A, 0.868.

For G6A C33U, the self-cleavage was 0.172. Under G54A A78C stands 0.247.

As to G25A C44U, the self-cleavage was found to be 0.107. Turning to G54C G76U, the self-cleavage came to 1.11. The result for U20C G80A reads 0.0496.

C3U G76C: the self-cleavage came to 0.708. Turning to G80A C85A, the self-cleavage amounted to 0.408.

For G2U C15A, the self-cleavage worked out at 0.0231. The result for C15A A56U reads 0.743; that for G25C U37C, 0.0554; that for C13G C36U, 0.0369. Under C4G A83C stands 0.102; under G31C G34U, 0.191; under C66U A78G, 0.69. Regarding C24A C66A, the self-cleavage came to 0.764. Under C22A A87G stands 0.33; under U9A A83C, 0.731; under C24G G54C, 0.0511.

Regarding C19A A87G, the self-cleavage was 0.11.

With C4U A70C, the self-cleavage is 0.482. The result for U46G C66G reads 0.633. Consider G10U C33U, for which the self-cleavage was determined as 0.466.

Take C33U A87U: the self-cleavage was found to be 0.885. With C18A G52U, the self-cleavage worked out at 0.237. Take U12A A42C: the self-cleavage was 0.147. Take G25U G40C: the self-cleavage came to 0.0297. Under C58A C61G stands 1.03; under C32A G52C, 0.0831; under A45C U47G, 0.95. Under C63U G67A stands 0.933; under G39U A42C, 0.237; under G59C A77U, 0.534. For the variant C62G C85U, the self-cleavage came to 0.902. In the case of G2A C36U, the self-cleavage was found to be 0.537. Turning to U79C G80A, the self-cleavage was 0.129. On to U23A C24A, for which the self-cleavage was 0.623. The result for U12C A83G reads 0.85. The result for G55C G76A reads 1.18; that for G2U C61U, 0.103. Under G28C C61G stands 0.158; under U47G C85U, 1.21. Turning to U12C C84G, the self-cleavage was found to be 0.391. The result for G50U A83G reads 0.818. For the variant G52C U69C, the self-cleavage was determined as 0.943.

For A45U G81C, the self-cleavage was determined as 0.287. The result for C13U U23C reads 0.415; that for U12C U60G, 0.399; that for G11C A70C, 0.32.

For A70U A77C, the self-cleavage turned out to be 0.0978. As for A78U G82C, the self-cleavage stood at 0.0302. In the case of C15A G35A, the self-cleavage came out at 0.405. The result for C3G G28C reads 0.107; that for U20A C22G, 0.

As to A42C G80C, the self-cleavage was determined as 0.101. The result for G1A G67U reads 0.297; that for U12G C15G, 0. Under G17C G73C stands 0.0875.

On to U27G G31A, for which the self-cleavage was 0.539. The result for U27G A56C reads 0.712; that for C14U G55A, 1.21; that for A16G U60C, 1.14. Regarding C13U G35U, the self-cleavage was found to be 0.163. Under C4G G10C stands 0.237; under G2C C18U, 0.0615; under C15U C19G, 0.0997. In the case of C21U A77G, the self-cleavage was 0.232. The result for A8C A56U reads 1.

As for C33U G59C, the self-cleavage amounted to 1.01.

For the variant G39U U69G, the self-cleavage worked out at 0.635. Under C33G A42G stands 0.0665; under G55A G67A, 0.997; under C33A A78U, 0.108. The result for A70U G76C reads 1. G40A U69G: the self-cleavage came to 0.712. Under U47G C48G stands 0.635. Take C22A C63G: the self-cleavage is 0.369. For the variant G29U C61A, the self-cleavage stood at 0.089. Take C44U G52U: the self-cleavage is 0.82. Consider C7U G25C, for which the self-cleavage turned out to be 0.0378. On to C33A C66U, for which the self-cleavage stood at 0.241. Under C3G C15A stands 0.293.

G11A A70U: the self-cleavage is 0.246.

For C19U A78U, the self-cleavage is 0.111. For the variant U69C A83C, the self-cleavage was 0.57.

Regarding C4G C44U, the self-cleavage was found to be 0.141.

G39C G53C: the self-cleavage was 0. C49U G50U: the self-cleavage is 0.941.

For the variant G11A C36G, the self-cleavage came to 0.151. Under G73A C86A stands 0.781; under C7A C64G, 0.429; under C26U G80U, 0.433. Under A71U G82A stands 0.365; under U9C C14U, 1.11; under C30G C44A, 0.0875. Under G2C U72C stands 0.142; under C61U C84A, 0.992; under C63A C85G, 0.849. Consider G39U G76A, for which the self-cleavage came out at 0.67.

On to G10U U46A, for which the self-cleavage is 0.489. The result for G31C U72A reads 0.166; that for C4G C19A, 0; that for C57A C86G, 0.89. Under U72C G80A stands 0.138.

As to C19A C32A, the self-cleavage was determined as 0.0604. The result for A16C A87G reads 0.769; that for C14A C21U, 0.151.

G10U A45U: the self-cleavage came out at 0.506.
